The values that follow come from patent US20230348612A1 (BEIJING MABWORKS BIOTECH, published 2023).

In the assay the target is T1, CD20 on Raji cells (CD20+ tumor cells) (UniProt P11836 1-297, limits assumed).
T1 construct: whole, on cells; also called CD20^+ Raji cells
T1 sequence (looked up): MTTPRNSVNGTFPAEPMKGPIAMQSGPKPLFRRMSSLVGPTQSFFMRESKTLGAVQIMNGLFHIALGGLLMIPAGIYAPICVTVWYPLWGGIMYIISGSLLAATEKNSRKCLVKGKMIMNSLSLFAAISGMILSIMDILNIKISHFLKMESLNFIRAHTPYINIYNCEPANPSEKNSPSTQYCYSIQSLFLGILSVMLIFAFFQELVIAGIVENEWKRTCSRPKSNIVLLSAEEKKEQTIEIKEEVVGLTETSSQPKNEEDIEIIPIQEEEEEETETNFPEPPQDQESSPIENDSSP
The assay can be described thus: FACS on Raji cells.

Procedure: For the assay to test the MBS303 and MBS303m′ binding activity to Raji and Jurkat cells, 10⁵ Raji or Jurkat cells were plated on 96-well ELISA plates in 100 μ1 cell culture medium, and the ELISA plates were added with 50 μl serially diluted MBS303 and MBS303m, respectively. […] The ELISA plates were incubated 4° C. for 1 h, washed with PBS for three times, and subject to the BD flow cytometry system for FACS.

B1: MBS303 (anti-CD3/CD20 bispecific antibody, anti-CD20 scFv with wildtype light chain framework regions) (bispecific antibody, human IgG1, kappa, lambda, L234A L235A, N297A)
heavy 1: QVQLVQSGAEVKKPGSSVKVSCKASGYAFSYSWINWVRQAPGQGLEWMGRIFPGDGDTDYNGKFKGRVTITADKSTSTAYMELSSLRSEDTAVYYCARNVFDGYWLVYWGQGTLVTVSSASTKGPSVFPLAPSSKSTSGGTAALGCLVKDYFPEPVTVSWNSGALTSGVHTFPAVLQSSGLYSLSSVVTVPSSSLGTQTYICNVNHKPSNTKVDKKVEPKSCDKTHTCPPCPAPEAAGGPSVFLFPPKPKDTLMISRTPEVTCVVVDVSHEDPEVKFNWYVDGVEVHNAKTKPREEQYASTYRVVSVLTVLHQDWLNGKEYKCKVSNKALPAPIEKTISKAKGQPREPQVYTLPPSREEMTKNQVSLSCAVKGFYPSDIAVEWESNGQPENNYKTTPPVLDSDGSFFLVSKLTVDKSRWQQGNVFSCSVMHEALHNHYTQKSLSLSPGK
light 1: DIVMTQTPLSLPVTPGEPASISCRSSKSLLHSNGITYLYWYLQKPGQSPQLLIYQMSNLVSGVPDRFSGSGSGTDFTLKISRVEAEDVGVYYCAQNLELPYTFGGGTKVEIKRTVAAPSVFIFPPSDEQLKSGTASVVCLLNNFYPREAKVQWKVDNALQSGNSQESVTEQDSKDSTYSLSSTLTLSKADYEKHKVYACEVTHQGLSSPVTKSFNRGEC
heavy 2: QVQLVQSGAEVKKPGSSVKVSCKASGYAFSYSWINWVRQAPGQGLEWMGRIFPGDGDTDYNGKFKGRVTITADKSTSTAYMELSSLRSEDTAVYYCARNVFDGYWLVYWGQGTLVTVSSGGGGSGGGGSGGGGSDIVMTQTPLSLPVTPGEPASISCRSSKSLLHSNGITYLYWYLQKPGQSPQLLIYQMSNLVSGVPDRFSGSGSGTDFTLKISRVEAEDVGVYYCAQNLELPYTFGGGTKVEIKGGGGSGGGGSGGGGSEVQLLESGGGLVQPGGSLRLSCAASGFTFNTYAMNWVRQAPGKGLEWVARIRSKYNNYATYYAISVKDRFTISRDDSKNTLYLQMNSLRAEDTAMYYCVRHGNFGNSYLSYWAYWGQGTLVTVSSASTKGPSVFPLAPSSKSTSGGTAALGCLVKDYFPEPVTVSWNSGALTSGVHTFPAVLQSSGLYSLSSVVTVPSSSLGTQTYICNVNHKPSNTKVDKKVEPKSCDKTHTCPPCPAPEAAGGPSVFLFPPKPKDTLMISRTPEVTCVVVDVSHEDPEVKFNWYVDGVEVHNAKTKPREEQYASTYRVVSVLTVLHQDWLNGKEYKCKVSNKALPAPIEKTISKAKGQPREPQVYTLPPSREEMTKNQVSLWCLVKGFYPSDIAVEWESNGQPENNYKTTPPVLDSDGSFFLYSKLTVDKSRWQQGNVFSCSVMHEALHNHYTQKSLSLSPGK
light 2: QAVVTQEPSLTVSPGGTVTLTCQSSTGAVTTNNYANWVQQKPGHAFRGLIGGTKQRAPGVPARFSGSLLGGKAALTLSGVQPEDEAEYYCVLWYSNLWVFGGGTKLTVLGQPKAAPSVTLFPPSSEELQANKATLVCLISDFYPGAVTVAWKADSSPVKAGVETTTPSKQSNNKYAASSYLSLTPEQWKSHRSYSCQVTHEGSTVEKTVAPTECS
notes: Asymmetric; half antibodies MIL220 and MIL221-2 were expressed separately and assembled in vitro; also called MIL220 + MIL221-2
Regarding B1, the binding result is “binds”.

B2: MBS303m (with 83E, 100Q and 104-106LTA) (anti-CD3/CD20 bispecific antibody, anti-CD20 scFv with mutated light chain framework regions) (bispecific antibody, human IgG1, kappa, lambda, L234A L235A, N297A)
heavy 1: QVQLVQSGAEVKKPGSSVKVSCKASGYAFSYSWINWVRQAPGQGLEWMGRIFPGDGDTDYNGKFKGRVTITADKSTSTAYMELSSLRSEDTAVYYCARNVFDGYWLVYWGQGTLVTVSSASTKGPSVFPLAPSSKSTSGGTAALGCLVKDYFPEPVTVSWNSGALTSGVHTFPAVLQSSGLYSLSSVVTVPSSSLGTQTYICNVNHKPSNTKVDKKVEPKSCDKTHTCPPCPAPEAAGGPSVFLFPPKPKDTLMISRTPEVTCVVVDVSHEDPEVKFNWYVDGVEVHNAKTKPREEQYASTYRVVSVLTVLHQDWLNGKEYKCKVSNKALPAPIEKTISKAKGQPREPQVYTLPPSREEMTKNQVSLSCAVKGFYPSDIAVEWESNGQPENNYKTTPPVLDSDGSFFLVSKLTVDKSRWQQGNVFSCSVMHEALHNHYTQKSLSLSPGK
light 1: DIVMTQTPLSLPVTPGEPASISCRSSKSLLHSNGITYLYWYLQKPGQSPQLLIYQMSNLVSGVPDRFSGSGSGTDFTLKISRVEAEDVGVYYCAQNLELPYTFGGGTKVEIKRTVAAPSVFIFPPSDEQLKSGTASVVCLLNNFYPREAKVQWKVDNALQSGNSQESVTEQDSKDSTYSLSSTLTLSKADYEKHKVYACEVTHQGLSSPVTKSFNRGEC
heavy 2: QVQLVQSGAEVKKPGSSVKVSCKASGYAFSYSWINWVRQAPGQGLEWMGRIFPGDGDTDYNGKFKGRVTITADKSTSTAYMELSSLRSEDTAVYYCARNVFDGYWLVYWGQGTLVTVSSGGGGSGGGGSGGGGSGGGGSDIVMTQTPLSLPVTPGEPASISCRSSKSLLHSNGITYLYWYLQKPGQSPQLLIYQMSNLVSGVPDRFSGSGSGTDFTLKISRVEAEDEGVYYCAQNLELPYTFGQGTKLTAKGGGGSGGGGSGGGGSEVQLLESGGGLVQPGGSLRLSCAASGFTFNTYAMNWVRQAPGKGLEWVARIRSKYNNYATYYAISVKDRFTISRDDSKNTLYLQMNSLRAEDTAMYYCVRHGNFGNSYLSYWAYWGQGTLVTVSSASTKGPSVFPLAPSSKSTSGGTAALGCLVKDYFPEPVTVSWNSGALTSGVHTFPAVLQSSGLYSLSSVVTVPSSSLGTQTYICNVNHKPSNTKVDKKVEPKSCDKTHTCPPCPAPEAAGGPSVFLFPPKPKDTLMISRTPEVTCVVVDVSHEDPEVKFNWYVDGVEVHNAKTKPREEQYASTYRVVSVLTVLHQDWLNGKEYKCKVSNKALPAPIEKTISKAKGQPREPQVYTLPPSREEMTKNQVSLWCLVKGFYPSDIAVEWESNGQPENNYKTTPPVLDSDGSFFLYSKLTVDKSRWQQGNVFSCSVMHEALHNHYTQKSLSLSPGK
light 2: QAVVTQEPSLTVSPGGTVTLTCQSSTGAVTTNNYANWVQQKPGHAFRGLIGGTKQRAPGVPARFSGSLLGGKAALTLSGVQPEDEAEYYCVLWYSNLWVFGGGTKLTVLGQPKAAPSVTLFPPSSEELQANKATLVCLISDFYPGAVTVAWKADSSPVKAGVETTTPSKQSNNKYAASSYLSLTPEQWKSHRSYSCQVTHEGSTVEKTVAPTECS
notes: also called MIL220 + MIL221-3 (with 83E, 100Q, 104-106LTA)
For the molecule B2, the binding result is given as “binds”.
